Laboratory results taken from paper PMC5507773, “Argonaute Utilization for miRNA Silencing Is Determined by Phosphorylation-Dependent Recruitment of LIM-Domain-Containing Proteins” (Cell Reports, 2017).

B1: maltose binding protein (MBP)-tagged full-length LIMD1 (natural protein)
chain: not shown
notes: LIMD1, full length; also called MBP-LIMD1; MBP-LIMD1 full-length; source: recombinant, purified (details in Supplemental Experimental Procedures)
B2: MBP-LIMD1 140–166 (AB motif) (domain or fragment, UniProt Q9UGP4 140-166, looked up)
chain: GTRHGSQDCGSRESLATSEMSAFHQPG
notes: source: recombinant, purified (details in Supplemental Experimental Procedures)

Target: T1, purified un-tagged AGO2 (hAGO2) (human, UniProt Q9UKV8 1-859)
T1 construct: AGO2, human, un-tagged; also called un-tagged crystallography grade hAGO2; source: purified, un-tagged, crystallography grade (De and Macrae, 2011)
Experiment: pull-down; MBP direct binding assay: purified un-tagged hAGO2 with MBP-VO, MBP-LIMD1 or MBP-LIMD1 140-166
Conditions: both partners purified

T1 sequence (Q9UKV8 whole entry): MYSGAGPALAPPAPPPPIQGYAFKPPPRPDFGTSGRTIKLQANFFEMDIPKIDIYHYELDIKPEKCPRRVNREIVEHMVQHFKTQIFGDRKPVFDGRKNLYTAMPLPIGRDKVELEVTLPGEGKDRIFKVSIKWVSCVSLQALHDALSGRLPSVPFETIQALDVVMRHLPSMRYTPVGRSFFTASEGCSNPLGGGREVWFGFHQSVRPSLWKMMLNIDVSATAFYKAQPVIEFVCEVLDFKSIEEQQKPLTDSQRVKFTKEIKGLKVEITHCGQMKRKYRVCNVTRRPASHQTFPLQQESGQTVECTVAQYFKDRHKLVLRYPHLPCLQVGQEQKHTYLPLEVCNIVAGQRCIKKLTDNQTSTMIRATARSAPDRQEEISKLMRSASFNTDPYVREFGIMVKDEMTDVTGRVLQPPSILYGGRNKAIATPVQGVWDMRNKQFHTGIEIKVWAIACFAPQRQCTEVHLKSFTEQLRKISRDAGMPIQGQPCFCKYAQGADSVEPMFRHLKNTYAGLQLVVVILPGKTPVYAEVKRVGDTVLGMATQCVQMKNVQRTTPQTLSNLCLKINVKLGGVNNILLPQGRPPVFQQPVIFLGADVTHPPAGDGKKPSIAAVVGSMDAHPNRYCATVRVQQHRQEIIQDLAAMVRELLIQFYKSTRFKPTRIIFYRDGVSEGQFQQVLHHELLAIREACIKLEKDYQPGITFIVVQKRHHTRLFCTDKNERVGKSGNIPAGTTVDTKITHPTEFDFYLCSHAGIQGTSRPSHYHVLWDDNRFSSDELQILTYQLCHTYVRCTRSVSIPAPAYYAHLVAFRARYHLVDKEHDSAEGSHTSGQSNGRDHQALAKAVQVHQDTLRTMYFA

| Binder | binding result |
| --- | --- |
| B1 | binds |
| B2 | binds |
